The target in one assay is Cul1-Rbx1 (Homo sapiens) (UniProt Q13616). The following applies: cited from earlier work.
The target of the next assay is ^3xFLAGpIκBα (UniProt P25963). Description: co-IP.

Kd and koff data for two substances are collected here from publication PMC5836512.

^3xFLAGpIκBα, sequence (P25963 whole entry): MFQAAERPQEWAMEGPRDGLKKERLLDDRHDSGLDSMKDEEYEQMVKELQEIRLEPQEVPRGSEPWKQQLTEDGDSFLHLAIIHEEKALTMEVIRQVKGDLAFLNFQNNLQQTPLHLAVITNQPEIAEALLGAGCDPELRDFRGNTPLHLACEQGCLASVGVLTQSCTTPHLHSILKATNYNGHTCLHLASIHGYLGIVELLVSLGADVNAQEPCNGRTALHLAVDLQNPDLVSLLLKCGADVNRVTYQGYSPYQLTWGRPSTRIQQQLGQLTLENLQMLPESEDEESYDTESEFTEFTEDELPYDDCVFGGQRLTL
Dcn1, sequence (Q96GG9 whole entry): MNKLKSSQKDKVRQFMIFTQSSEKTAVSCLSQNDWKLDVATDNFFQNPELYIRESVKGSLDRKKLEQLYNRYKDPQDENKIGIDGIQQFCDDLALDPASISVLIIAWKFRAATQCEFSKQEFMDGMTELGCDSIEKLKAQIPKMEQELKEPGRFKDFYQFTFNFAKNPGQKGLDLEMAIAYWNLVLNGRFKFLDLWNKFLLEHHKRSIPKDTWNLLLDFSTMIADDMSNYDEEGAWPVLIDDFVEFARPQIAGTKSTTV

Broadly, the Kd is the equilibrium constant for the complex coming apart. For Dcn1 (from UniProt Q96GG9), in the assay with Cul1-Rbx1 (Homo sapiens), the Kd is 1800 nM.

In general, koff refers to a measure of how fast the partners let go of each other. A high value points to fast dissociation. Turning to “β-TrCP (from UniProt Q9Y297 1-605) (natural protein)”, the koff in the assay with ^3xFLAGpIκBα stood at 3.3e-05 s⁻¹.
